The source of these data is paper PMC10767048 (Nature Communications, 2024).

For this experiment, the target named is T1, bovine serum albumin (Bos taurus, UniProt P02769).
T1 construct: also called BSA
Kind of experiment: ELISA. The settings on record: both partners purified. In general terms: In an ELISA, binding on a coated surface is turned into a signal by an enzyme label.

T1 sequence (P02769 25-607): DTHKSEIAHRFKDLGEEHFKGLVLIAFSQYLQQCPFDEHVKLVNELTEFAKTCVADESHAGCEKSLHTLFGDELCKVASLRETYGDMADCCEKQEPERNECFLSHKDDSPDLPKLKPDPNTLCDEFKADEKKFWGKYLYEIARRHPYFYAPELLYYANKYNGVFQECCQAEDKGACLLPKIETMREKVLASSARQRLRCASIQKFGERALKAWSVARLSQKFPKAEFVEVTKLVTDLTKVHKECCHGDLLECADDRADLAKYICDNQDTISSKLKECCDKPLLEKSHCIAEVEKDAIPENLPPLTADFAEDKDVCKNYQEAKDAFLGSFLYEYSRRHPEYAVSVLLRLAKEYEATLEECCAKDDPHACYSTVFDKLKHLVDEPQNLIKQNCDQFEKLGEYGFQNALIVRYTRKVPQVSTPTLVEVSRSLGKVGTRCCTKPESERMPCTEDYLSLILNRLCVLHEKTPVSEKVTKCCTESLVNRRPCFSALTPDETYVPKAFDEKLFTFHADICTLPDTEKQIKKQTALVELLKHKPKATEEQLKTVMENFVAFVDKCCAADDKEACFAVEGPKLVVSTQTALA

B1: nanobody D5 (camel VHH) (VHH)
VHH: AWQLVESGGGSVQPGGSLTLTCQASKSTFSTSGMRWERQAQGKGVEFVADISSDSTRKWYSDSVKGRFTISRSNWWRTVTLQMNDLKPEDTARYYCKDLESHHLRGQGTQVTVSS
notes: source: E. coli HB2151 (pComb3x phagemid), released with polymyxin B, purified (HisTrap)
Take B1: the binding result was “no binding (tested: 1 μg/ml)”.
